Experimental findings from publication PMC3004248 are described below.

The target in the assay is one-twelfth protomer of the giant extracellular haemoglobin from Glossoscolex paulistus (cyanomet HbGp) (Glossoscolex paulistus). Nature of the assay: crystal structure; cyanomet-HbGp, whole particle; crystals from 1.2 M sodium citrate, 2.5 mM CaCl2, 50 mM Tris-HCl pH 7.5; space group I222, data to 3.2 Å; molecular replacement with the one-twelfth protomer of L. terrestris erythrocruorin (2gtl); preliminary, not refined.

Substance “one-twelfth protomer of the giant extracellular haemoglobin from Glossoscolex paulistus (cyanomet HbGp) (complex)” gave a stoichiometry N (protomers per full particle) of 12.
